US10100129B2, “Antibodies against CD73 and uses thereof” (BRISTOL-MYERS SQUIBB COMPANY, priority 2014, dated 2018)
Numbering of substitutions follows the chain as printed.

T1: CD32b (FcgRIIb) (Homo sapiens, UniProt P31994)
T1 sequence (P31994 43-310): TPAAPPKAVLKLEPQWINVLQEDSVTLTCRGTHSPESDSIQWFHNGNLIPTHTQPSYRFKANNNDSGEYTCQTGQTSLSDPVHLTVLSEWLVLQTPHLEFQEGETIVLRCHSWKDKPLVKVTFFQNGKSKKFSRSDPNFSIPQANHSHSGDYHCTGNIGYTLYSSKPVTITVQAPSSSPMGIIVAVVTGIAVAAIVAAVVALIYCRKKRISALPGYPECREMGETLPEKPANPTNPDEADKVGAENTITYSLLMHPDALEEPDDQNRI

T2: CD32a-R131 (FcgRIIa-R131) (Homo sapiens, UniProt P12318, H167R)
T2 sequence (P12318 34-217 H167R limits assumed): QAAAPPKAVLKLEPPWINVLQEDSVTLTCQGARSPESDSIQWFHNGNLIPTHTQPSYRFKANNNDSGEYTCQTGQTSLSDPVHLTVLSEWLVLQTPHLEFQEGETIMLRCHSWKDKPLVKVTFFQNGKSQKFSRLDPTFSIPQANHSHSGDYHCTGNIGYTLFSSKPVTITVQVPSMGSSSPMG

T3: CD32a-H131 (FcgRIIa-H131) (Homo sapiens, UniProt P12318)
T3 sequence (P12318 34-217 limits assumed): T2 sequence (P12318 34-217 H167R limits assumed) with R134H

B1: mAb11-IgG2.3 (protein)
constant: ASTKGPSVFPLAPCSRSTSESTAALGCLVKDYFPEPVTVSWNSGALTSGVHTFPAVLQSSGLYSLSSVVTVPSSNFGTQTYTCNVDHKPSNTKVDKTVERKSCVECPPCPAPPVAGPSVFLFPPKPKDTLMISRTPEVTCVVVDVSHEDPEVQFNWYVDGVEVHNAKTKPREEQFNSTFRVVSVLTVVHQDWLNGKEYKCKVSNKGLPAPIEKTISKTKGQPREPQVYTLPPSREEMTKNQVSLTCLVKGFYPSDIAVEWESNGQPENNYKTTPPMLDSDGSFFLYSKLTVDKSRWQQGNVFSCSVMHEALHNHYTQKSLSLSPGK
modifications: left off: another chain or arm of the molecule
B2: mAb10-IgG2.5 (protein)
constant: B1 constant with C14S, S102C
modifications: left off: another chain or arm of the molecule; small tags and cut ends
B3: mAb12-IgG2.5 (protein)
constant: B1 constant with C14S, S102C
modifications: left off: another chain or arm of the molecule
B4: mAb8-IgG2.3G1-AY-V27 (protein)
constant: ASTKGPSVFPLAPCSRSTSESTAALGCLVKDYFPEPVTVSWNSGALTSGVHTFPAVLQSSGLYSLSSVVTVPSSNFGTQTYTCNVDHKPSNTKVDKTVERKSCVECPPCPAPELLGGPSVFLFPPKPKDTLMISRTPEVTCVVVDVEHEDPEVKFNWYVDGVEVHNAKTKPREEQYNSTYRVVSVLTVLHQDWLNGKEYKCKVSNKALPAPIEKTISKAKGQPREPQVYTLPPSREEMTKNQVSLTCLVKGFYPSDIAVEWESNGQPENNYKTTPPVLDSDGSFFLYSKLTVDKSRWQQGNVFSCSVMHEALHNHYTQKSLSLSPGK
modifications: left off: another chain or arm of the molecule
B5: mAb10-IgG2.3G1-AY-V27 (protein)
constant: B4 constant
modifications: left off: another chain or arm of the molecule

Target: T1, CD32b (FcgRIIb)
Assay: SPR binding to FcgR-his: CD32b
Settings: 1 μM antibody, anti-his Fab captured FcgR-his
Procedure: (§1) The binding of antibodies to Fc gamma receptors (FcγRs or FcgRs) was studied using biosensor technologies including Biacore surface plasmon resonance (SPR) and Fortebio Biolayer Interferometry (BLI). SPR studies were performed on a Biacore T100 instrument (GE Healthcare) at 25° C. The Fab fragment from a murine anti-6×His antibody was immobilized on a CM5 sensor chip using EDC/NHS to a density of ˜3000 RU. Various his-tagged FcgRs (7 ug/ml) were captured via the C-terminal his-tag using a contact time of 30 s at 10 ul/min, and the binding of 1.0 μM antibody was evaluated in a running buffer of 10 mM NaPO4, 130 mM NaCl, 0.05% p20 (PBS-T) pH 7.1. FcgRs used for these experiments included CD64 (FcgRI), CD32a-H131 (FcgRIIa-H131), CD32a-R131 (FcgRIIa-R131), CD32b (FcgRIIb), CD16a-V158 (FcgRIIIa-V158), CD16b-NA1 (FcgRIIIb-NA1), and CD16B-NA2 (FcgRIIIb-NA2). BLI experiments were performed on a Fortebio Octet RED instrument (Pall, Fortebio) at 25° C. in 10 mM NaPO4, 130 mM NaCl, 0.05% p20 (PBS-T) pH 7.1. Antibodies were captured out of undiluted expression supernatants on protein A coated sensors, followed by the binding of 1 μM hCD32a-H131, hCD32a-R131, hCD32b, hCD16a-V158, or 0.1 μM hCD64 analytes.

| Molecule | % Rmax, binding to hCD32b [%] |
| --- | --- |
| B1 | 5 |
| B2 | 1 |
| B3 | 1 |
| B4 | 67 |
| B5 | 40 |

Target: T2, CD32a-R131 (FcgRIIa-R131)
Assay: SPR binding to FcgR-his: CD32a-R131
Settings: 1 μM antibody, anti-his Fab captured FcgR-his
Procedure: as §1

| Molecule | % Rmax, binding to hCD32a-R131 [%] |
| --- | --- |
| B1 | 17 |
| B2 | 5 |
| B3 | 6 |
| B4 | 80 |
| B5 | 57 |

Target: CD16a-V158 (FcgRIIIa-V158) (Homo sapiens, UniProt P08637, F176V)
Sequence (P08637 17-208 F176V limits assumed): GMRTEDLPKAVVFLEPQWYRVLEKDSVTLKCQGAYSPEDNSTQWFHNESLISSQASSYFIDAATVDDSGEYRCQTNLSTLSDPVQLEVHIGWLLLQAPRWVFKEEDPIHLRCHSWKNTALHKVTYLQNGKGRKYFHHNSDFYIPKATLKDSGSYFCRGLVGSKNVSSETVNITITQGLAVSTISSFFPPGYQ
Assay: SPR binding to FcgR-his: CD16a-V158
Settings: 1 μM antibody, anti-his Fab captured FcgR-his
Procedure: as §1

| Molecule | % Rmax, binding to hCD16a-V158 [%] |
| --- | --- |
| B1 | 1 |
| B2 | 1 |
| B3 | 1 |
| B5 | 12 |

Target: CD16B-NA2 (FcgRIIIb-NA2) (Homo sapiens, UniProt O75015)
Sequence (O75015 17-200 limits assumed): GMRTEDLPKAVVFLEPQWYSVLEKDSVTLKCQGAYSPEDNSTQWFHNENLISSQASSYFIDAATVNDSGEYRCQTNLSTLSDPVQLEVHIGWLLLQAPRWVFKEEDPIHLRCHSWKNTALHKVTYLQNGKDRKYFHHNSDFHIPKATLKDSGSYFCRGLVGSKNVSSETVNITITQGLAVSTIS
Assay: SPR binding to FcgR-his: CD16B-NA2
Settings: 1 μM antibody, anti-his Fab captured FcgR-his
Procedure: as §1

| Molecule | % Rmax, binding to hCD16B-NA2 [%] |
| --- | --- |
| B1 | 0 |
| B2 | 0 |
| B3 | 0 |
| B4 | 7 |
| B5 | 3 |

Target: CD64 (FcgRI) (Homo sapiens, UniProt P12314)
Sequence (P12314 16-374): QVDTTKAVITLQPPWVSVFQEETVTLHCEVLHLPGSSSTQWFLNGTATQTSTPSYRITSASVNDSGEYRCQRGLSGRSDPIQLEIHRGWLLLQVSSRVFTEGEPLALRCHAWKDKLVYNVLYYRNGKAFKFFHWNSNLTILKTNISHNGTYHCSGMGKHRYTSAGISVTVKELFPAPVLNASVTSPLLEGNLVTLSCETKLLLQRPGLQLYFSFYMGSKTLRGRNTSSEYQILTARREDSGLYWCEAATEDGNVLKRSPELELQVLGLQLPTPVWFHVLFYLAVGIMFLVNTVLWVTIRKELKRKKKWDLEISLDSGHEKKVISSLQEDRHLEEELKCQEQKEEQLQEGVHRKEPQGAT
Assay: SPR binding of 1.0 μM antibody to anti-his Fab captured FcgR-his: CD64
Settings: not given
Procedure: as §1

| Molecule | % Rmax, binding to hCD64 [%] |
| --- | --- |
| B1 | 2 |
| B2 | 1 |
| B3 | 1 |
| B4 | 78 |
| B5 | 69 |

Target: T3, CD32a-H131 (FcgRIIa-H131)
Assay: SPR binding to FcgR-his: CD32a-H131
Settings: 1 μM antibody, anti-his Fab captured FcgR-his
Procedure: as §1

| Molecule | % Rmax, binding to hCD32a-H131 [%] |
| --- | --- |
| B1 | 44 |
| B4 | 67 |
